Experimental data from US20240392013A1, “IL1RAP ANTIBODIES AND USES THEREOF” (STELEXIS THERAPEUTICS, LLC, priority 2021, published 2024).

Legend:
cyIL1RAP = experiment: Kinetics of IL1RAP mAbs by Octet, cynomolgus IL1RAP; type: binding
Method: Antibodies were diluted in kinetics buffer (0.1% BSA, 0.02% Tween-20 and 0.05% NaN3 in PBS) and loaded onto 16 channel anti-mouse IgG Fc capture sensors (AMC, Cat #2001073; Sartorius, Göttingen, Germany). Human, huIL1RAP-His (Sino Biological, lot: MB08MA1301), and monkey, cyIL1RAP-His (Lake Pharma, NY, USA; lot:16205819371) proteins were titrated starting from the highest concentration of 100 nM and followed by 50 nM and 25 nM. Purified antibodies were loaded at 5 μg/ml in kinetics buffer. The experimental parameters selected to determine the kinetic constants were Baseline for 60 s, Loading of antibody to sensor for 180 s, Association of analyte to antibody for 120 s, Dissociation for 1200 s and Regeneration in 10 mM Glycine pH 1.7 for 4×30 s.
Regeneration cycle tracking was selected for 12 cycles. Binding to human and cynomolgus IL1RAP was measured and KD (M) kinetics were calculated. Also, the disassociation rate (Kdis) (1/s) and association rate (Kon) (1/Ms) kinetics were calculated (data not shown).

[1] = test system: IL1-induced NFκB activity; experiment: HEK-BlueIL1β NFκB Reporter Assay; type: cell-based; conditions: nM range, read-out: IC50, inhibition of IL1-induced NFκB activity
Method: The HEK-Blue IL1β (Invivogen, Cat #hkb-il1b) cell line was used to monitor NFκB activity upon stimulation with IL1β cytokine. In this cell line the secreted embryonic alkaline phosphatase reporter gene (SEAP) is inducibly expressed under the control of IFN-β minimal promoter fused to NFκB/AP-1. Specificity to IL1β cytokine was achieved by blockage of TNF-α response. The cells were maintained in the presence of hygromycin (200 μg/ml) and zeocin (100 μg/ml).
For the functional assay, cells were plated at a density of 5×10^4 cells/well in 96-well plates. Cells were treated with each antibody at the highest concentration of 200 μg/ml followed by seven serial 1:3 dilutions and incubated for 45 minutes at 37° C./5% CO2 in humified incubator. Cells were then stimulated with IL1β ([…]) and incubated overnight at 37° C./5% CO2 in humified incubator. Every treatment was conducted in triplicates. Following, supernatants from each well were mixed with Quanti-Blue substrate (Invivogen, CA USA; Cat #rep-qb1) according to manufacturer's recommendations and secreted SEAP was measured using spectrophotometer at 650 nm.

A431 cells = experiment: IL-36-induced IL-8 secretion, ELISA; type: cell-based, human; conditions: IL-36γ, 72 hours, dose-dependent
Method: Methods: A431 cells were seeded on CytoOne® 24 well plate (USA Scientific, Cat #CC7682-7524) at 0.05×10^6/mL and were kept at 37° C./5% CO2 in humified incubator. After 6 hours the cells were treated with IL-36γ (0.5 ng/ml) in the presence or absence of IL1RAP antibodies at 66 nM, 200 nM, 666 nM and […]. Cell culture media was collected after 72 hours and was centrifuged at 4° C. for 5 min. All supernatant samples were analyzed in triplicates. Human IL-8 microplate (R&D cat #890462) was incubated for 2 hours at room temperature with standard, control, or supernatant samples (1001) diluted in assay Diluent RD1-85 (1001). Samples were aspirated and washed with wash buffer (R&D Part #895003) for four times. Human IL-8 conjugate (200 μl) (R&D cat #890465) was added to each well and incubated for 2 hours at room temperature. Aspiration/wash step was repeated as stated above. Equal volume of substrate color reagent A (R&D, cat #895000) and B (R&D, cat #895001) were mixed, and the substrate solution (200 ul) was added to each well and incubated for 20 minutes at room temperature in the dark. Stop solution (501) (R&D, cat #895032) was added to each well and optical density of each well was determined at 450 nm with Cytation™ Cell Imaging Multi-Mode Reader (BioTek).

hIL1RAP = molecular target: T1, hIL1RAP (Homo sapiens, UniProt Q9NPH3); experiment: Binding of mAbs to human IL1RAP protein by cell-free ELISA; design: extracellular domain His-tagged, Cat #10121-H08H; His; purchased Sino Biological 10121-H08H; conditions: FIG. 1
T1 sequence (Q9NPH3 21-367 limits assumed): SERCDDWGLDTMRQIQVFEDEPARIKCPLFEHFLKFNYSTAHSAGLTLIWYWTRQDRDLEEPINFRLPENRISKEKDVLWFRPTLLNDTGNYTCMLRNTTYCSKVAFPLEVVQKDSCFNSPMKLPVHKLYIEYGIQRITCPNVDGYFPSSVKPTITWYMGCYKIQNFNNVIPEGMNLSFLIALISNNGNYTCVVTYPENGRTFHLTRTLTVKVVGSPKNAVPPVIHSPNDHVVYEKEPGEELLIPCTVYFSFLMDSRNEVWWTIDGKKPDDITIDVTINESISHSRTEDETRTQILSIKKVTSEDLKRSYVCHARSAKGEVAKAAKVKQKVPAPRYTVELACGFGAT
Method: Recombinant human or mouse IL1RAP proteins (Sino Biological, Beijing, China; Cat #10121-H08H and Sino Biological, Cat #52657-M08H respectively) were diluted in PBS, pH 7.4 at concentration of 1 μg/ml, coated on high-binding 384-well clear plates and incubated overnight at 4° C. Following, plates were washed 3× with 0.05% Tween-20 in PBS, pH 7.5 and then blocked with 1% BSA in PBS for 1 hour at room temperature. After 3× washes, wells were incubated with each antibody at the highest concentration of 100 nM followed by seven serial half log dilutions (in 1% BSA and 0.05% Tween-20 in PBS) for 1 hour at room temperature. Plates were then washed 3× and incubated with […] detection antibody (Medna, TX, USA; Cat #D8212, 0.5 μg/ml diluted in 0.02% Tween-20 in PBS). After 5× washes, Supersignal ELISA Pico substrate (Thermofisher, MA, USA; Cat #37069) was applied to wells and chemiluminescent signal was read on Sprectramax L for 200 ms/well. Similarly, detection with specific κ and λ antibodies was conducted to define light chain isotyping.
Binding of mAbs to human IL1RAP protein was determined by cell-free ELISA. mAbs bound to human IL1RAP and EC50 values were calculated at the nM range.

B1: 74804_12A21B: anti-IL1RAP mAb; VH SEQ ID NO:6, VL SEQ ID NO:23, κ light chain (antibody, V domains shown)
VH: QVQLLQSGAEVKKPGSSVKVSCKASGGTFSIYAIDWVRQAPGQGLEWMGGIIPIFGTANSAQKFQGRVTITADKSTSTAYMELSSLRSEDTAVYYCARNGATSDAFDMWGQGTMVTVSS
VL: EIVLTQSPGTLSLSPGERATLSCRASLSVSSNYLAWFQQRPGQAPRLLIHGVSRRATGIPDRFSGSGSGTDFTLTISRLEPEDFAVYYCQQYGSSPLTFGGGTKVEIK
modifications: 74804_12A21B VH and 74804_29D13A VH; 74804_12A21B VL
cyIL1RAP
  cyIL1RAP kdis(1/s): 0.000441 s⁻¹
  cyIL1RAP kon(1/Ms): 342200 M⁻¹ s⁻¹
[1]
  IC50: 1.31 nM
A431 cells
  IL-36-induced IL-8 secretion: inhibited
hIL1RAP
  Binding to human IL1RAP: bound to human IL1RAP in a dose dependent manner

B2: 74804_43F04A: anti-IL1RAP mAb; VH SEQ ID NO:7, VL SEQ ID NO:22, κ light chain (antibody, V domains shown)
VH: QVQLLQSGAEVKKPGSSVKVSCKASGGTFSIYAIDWVRQAPGQGLEWMGGIIPIFGTENSAQNFQGRITITADKSTNTAYMELSSLRSEDTAVYYCARNGATSDAFDIWGQGTMVTVFS
VL: EIVLTQSPGTLSLSPGERATLSCRASLSVSSNYLAWFQQRPGQAPRLLIYGVSRRATGIPDRFSGSGSGTDFTLTISRLEPEDFAVYYCQQYGSSPLTFGGGTKVEIK
modifications: 74804_43F04A VH; 74804_07K10A VL, 74804_29D13A VL and 74804_43F04A VL
cyIL1RAP
  cyIL1RAP kdis(1/s): 0.0004 s⁻¹
  cyIL1RAP kon(1/Ms): 412100 M⁻¹ s⁻¹
[1]
  IC50: 2.29 nM
A431 cells
  IL-36-induced IL-8 secretion: inhibited
hIL1RAP
  Binding to human IL1RAP: bound to human IL1RAP in a dose dependent manner
